Results from doi:10.1101/2020.06.15.153577.

Legend:
[1] = target: Drosophila Shaker channel (ShakerIR) (Drosophila) (UniProt P08510)
ShakerKD (Drosophila) = ShakerKD (Drosophila) (UniProt P08510)

Row | Substance | EC50 of block of K+ currents, two-electrode voltage clamp on Xenopus oocytes [1] [nM] | EC50 of block of K+ currents, two-electrode voltage clamp on Xenopus oocytes (ShakerKD (Drosophila)) [nM]
1 | Conkunitzin-C1 (peptide) | 2200 | 108
2 | Conkunitzin-C3 (peptide) | 166 | 190
